In test [1] the target is human transferrin receptor-1 on human TfR-positive cells (SK-OV-3, hCMEC/D3) (human) (UniProt P02786). The test is described as follows: flow cytometry on SK-OV-3 cells, 200 nM Ztaq-ABD (negative control) co-incubated with 25 µg/mL Tf-488.
The target is the same in test [2]. The test is described as follows: flow cytometry on SK-OV-3 cells, 600 nM Ztaq-ABD (negative control) co-incubated with 25 µg/mL Tf-488.

Chain of UniProt P02786 (P02786 whole entry): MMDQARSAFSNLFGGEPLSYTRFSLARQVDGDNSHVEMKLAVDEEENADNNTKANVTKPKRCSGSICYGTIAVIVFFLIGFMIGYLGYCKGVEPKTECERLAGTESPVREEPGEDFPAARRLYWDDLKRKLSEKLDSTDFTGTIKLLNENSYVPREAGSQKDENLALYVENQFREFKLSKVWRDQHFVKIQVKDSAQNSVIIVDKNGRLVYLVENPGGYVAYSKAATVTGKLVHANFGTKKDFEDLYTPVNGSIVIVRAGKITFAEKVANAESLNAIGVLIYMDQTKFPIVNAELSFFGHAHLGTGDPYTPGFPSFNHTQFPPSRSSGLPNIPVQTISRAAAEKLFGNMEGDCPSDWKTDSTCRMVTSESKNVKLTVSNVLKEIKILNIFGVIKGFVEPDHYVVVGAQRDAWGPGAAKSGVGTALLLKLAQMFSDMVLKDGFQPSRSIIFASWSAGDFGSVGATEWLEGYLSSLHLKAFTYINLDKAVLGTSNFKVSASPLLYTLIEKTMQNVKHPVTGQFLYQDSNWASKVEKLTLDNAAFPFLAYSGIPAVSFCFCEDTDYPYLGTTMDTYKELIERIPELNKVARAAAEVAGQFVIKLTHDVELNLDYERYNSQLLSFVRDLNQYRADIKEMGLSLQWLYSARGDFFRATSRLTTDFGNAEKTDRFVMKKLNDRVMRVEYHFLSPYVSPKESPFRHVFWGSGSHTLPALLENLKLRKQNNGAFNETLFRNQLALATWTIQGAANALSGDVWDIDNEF

Consider Ztaq-ABD, for which the MFI 640/660 nm in test [1] worked out at 1.62 MFI.

Take Ztaq-ABD (designed binder): the MFI 640/660 nm in test [2] was found to be 3.69 MFI.

The values above are taken from patent EP4424703A1.
